The text below walks through data of patent US8242083B2, “Kinase substrates” (PerkinElmer Health Sciences, Inc., priority 2008, dated 2012).

Common to all, as to format: biochemical
Test [1] deals with FES (Homo sapiens, UniProt P07332). As to the kind of experiment: TR-FRET kinase assay, FES. The following applies: Kinase Concentration 1 nM; 50 nM ULight-labeled substrate, 200 micromolar ATP, 2 hours. As for the experimental part:
(§1) TR-FRET kinase assays are performed under standardized conditions: various individual kinases are incubated with 50 nM of kinase substrate BRB1 labeled with the TR-FRET acceptor dye ULight (PerkinElmer) and 200 micromolar ATP in 10 μL of kinase assay buffer (50 mM HEPES pH7.5, 10 mM MgCl2, 3 mM MnCl2, 1 mM EGTA, 2 mM DTT and 0.01% Tween-20) for 2 hours at room temperature. Reactions are stopped with EDTA, and anti-phospho-tyrosine antibodies (clone PT66) labeled with the TR-FRET europium chelate donor dye are added to a final concentration of 2 nM in a final volume of 20 μL. The TR-FRET signal emitted at 665 nm is read one hour after the addition of antibodies using a TR-FRET plate reader such as the Envision® Multilabel Plate reader (PerkinElmer). The emitted signal at 665 nm is proportional to the extent of peptide phosphorylation, Control reactions indicative of background are performed excluding ATP from the reaction.
(§2) Assay conditions are identical to those used described for FIG. 1.
A general note: TR-FRET usually uses a lanthanide donor and a delayed reading to cut background.

Test [2] deals with FRK (Homo sapiens, UniProt P42685). As to the kind of experiment: TR-FRET kinase assay, FRK. The note with it: Kinase Concentration 0.5 nM; 50 nM ULight-labeled substrate, 200 micromolar ATP, 2 hours. The protocol: as §1, §2
Test [3] addresses DDR1 (Homo sapiens, UniProt Q08345). As to the kind of experiment: TR-FRET kinase assay, DDR1. The following applies: Kinase Concentration 0.5 nM; 50 nM ULight-labeled substrate, 200 micromolar ATP, 2 hours. As for the experimental part:
as §1, §2

Test [4] concerns the target T1, EphA1 (Homo sapiens, UniProt P21709).
T1 sequence (P21709 26-976): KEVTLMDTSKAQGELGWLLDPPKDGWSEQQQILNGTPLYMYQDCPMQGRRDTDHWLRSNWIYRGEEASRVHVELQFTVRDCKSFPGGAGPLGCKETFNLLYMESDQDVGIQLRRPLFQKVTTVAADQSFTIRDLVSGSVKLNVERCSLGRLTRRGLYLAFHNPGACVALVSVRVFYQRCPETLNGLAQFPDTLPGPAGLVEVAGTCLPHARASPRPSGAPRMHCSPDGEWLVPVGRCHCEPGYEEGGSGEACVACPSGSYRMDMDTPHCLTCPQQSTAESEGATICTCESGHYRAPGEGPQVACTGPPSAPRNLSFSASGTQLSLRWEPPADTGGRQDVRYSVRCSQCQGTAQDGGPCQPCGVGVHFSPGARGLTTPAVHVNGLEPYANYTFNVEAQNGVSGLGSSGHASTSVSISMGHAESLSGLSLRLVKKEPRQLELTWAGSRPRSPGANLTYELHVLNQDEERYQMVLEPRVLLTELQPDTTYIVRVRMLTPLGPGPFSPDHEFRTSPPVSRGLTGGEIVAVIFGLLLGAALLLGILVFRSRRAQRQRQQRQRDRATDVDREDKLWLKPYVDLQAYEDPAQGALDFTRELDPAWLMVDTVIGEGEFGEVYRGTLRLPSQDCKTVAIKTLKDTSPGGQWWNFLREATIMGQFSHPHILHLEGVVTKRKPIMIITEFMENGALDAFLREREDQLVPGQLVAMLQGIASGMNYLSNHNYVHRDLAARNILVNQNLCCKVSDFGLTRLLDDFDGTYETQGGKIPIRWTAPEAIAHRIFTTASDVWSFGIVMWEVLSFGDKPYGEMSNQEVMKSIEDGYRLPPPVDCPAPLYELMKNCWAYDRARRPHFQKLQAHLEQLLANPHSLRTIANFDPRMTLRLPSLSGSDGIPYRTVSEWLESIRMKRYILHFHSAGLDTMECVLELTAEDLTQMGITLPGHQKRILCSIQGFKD
As to the kind of experiment: TR-FRET kinase assay, EphA1. The following applies: Kinase Concentration 0.5 nM; 50 nM ULight-labeled substrate, 200 micromolar ATP, 2 hours. As for the experimental part: as §1, §2

Test [5] has as its target EphA5 (Homo sapiens, UniProt P54756). As to the kind of experiment: TR-FRET kinase assay, EphA5. The following applies: Kinase Concentration 1 nM; 50 nM ULight-labeled substrate, 200 micromolar ATP, 2 hours. The protocol: as §1, §2
The target in test [6] is HER2 (Homo sapiens, UniProt P04626). As to the kind of experiment: TR-FRET kinase assay, HER2. The following applies: Kinase Concentration 10 nM; 50 nM ULight-labeled substrate, 200 micromolar ATP, 2 hours. The protocol: as §1, §2
Test [7] deals with ROR1 (Homo sapiens, UniProt Q01973). As to the kind of experiment: TR-FRET kinase assay, ROR1. The note with it: Kinase Concentration 20 nM; 50 nM ULight-labeled substrate, 200 micromolar ATP, 2 hours. The protocol: as §1, §2
In test [8] the test system is 83 tyrosine kinases. As to the kind of experiment: Panel of 83 TR-FRET tyrosine kinase assays. The following applies: 83 tyrosine kinases tested; conditions of Example 1. As for the experimental part: as §1, §2
The BRB2 peptide is tested with 83 tyrosine kinases in assay conditions identical to those used for BRB1 in Example 1. Data obtained with BRB2 indicate that the peptide is phosphorylated by 65 kinases out of 83 (78%), with signal to noise ratio of >3.

DDR1, sequence (Q08345 19-913, species assumed): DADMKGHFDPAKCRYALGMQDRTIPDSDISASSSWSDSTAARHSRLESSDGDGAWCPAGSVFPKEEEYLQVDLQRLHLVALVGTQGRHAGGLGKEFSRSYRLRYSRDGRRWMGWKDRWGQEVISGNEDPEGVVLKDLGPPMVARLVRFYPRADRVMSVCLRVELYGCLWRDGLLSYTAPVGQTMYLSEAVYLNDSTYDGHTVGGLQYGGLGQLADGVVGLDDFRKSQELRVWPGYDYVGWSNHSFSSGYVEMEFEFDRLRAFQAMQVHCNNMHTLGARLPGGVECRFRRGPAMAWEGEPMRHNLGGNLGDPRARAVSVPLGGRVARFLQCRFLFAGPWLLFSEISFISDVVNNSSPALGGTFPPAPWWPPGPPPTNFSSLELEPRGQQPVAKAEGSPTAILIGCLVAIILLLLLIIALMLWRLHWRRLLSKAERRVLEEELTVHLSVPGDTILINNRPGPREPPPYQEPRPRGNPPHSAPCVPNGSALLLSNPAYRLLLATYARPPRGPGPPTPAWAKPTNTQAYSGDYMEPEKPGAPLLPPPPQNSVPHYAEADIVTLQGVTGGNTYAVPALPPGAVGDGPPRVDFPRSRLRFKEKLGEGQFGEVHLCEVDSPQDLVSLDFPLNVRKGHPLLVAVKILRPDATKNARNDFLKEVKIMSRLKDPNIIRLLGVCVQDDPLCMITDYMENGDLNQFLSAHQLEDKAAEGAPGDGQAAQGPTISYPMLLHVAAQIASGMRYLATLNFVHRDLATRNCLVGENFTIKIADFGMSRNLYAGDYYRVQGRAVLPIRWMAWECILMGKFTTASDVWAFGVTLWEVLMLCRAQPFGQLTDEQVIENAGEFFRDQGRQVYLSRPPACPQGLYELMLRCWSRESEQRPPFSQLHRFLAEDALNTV
EphA5, sequence (P54756 25-1037, species assumed): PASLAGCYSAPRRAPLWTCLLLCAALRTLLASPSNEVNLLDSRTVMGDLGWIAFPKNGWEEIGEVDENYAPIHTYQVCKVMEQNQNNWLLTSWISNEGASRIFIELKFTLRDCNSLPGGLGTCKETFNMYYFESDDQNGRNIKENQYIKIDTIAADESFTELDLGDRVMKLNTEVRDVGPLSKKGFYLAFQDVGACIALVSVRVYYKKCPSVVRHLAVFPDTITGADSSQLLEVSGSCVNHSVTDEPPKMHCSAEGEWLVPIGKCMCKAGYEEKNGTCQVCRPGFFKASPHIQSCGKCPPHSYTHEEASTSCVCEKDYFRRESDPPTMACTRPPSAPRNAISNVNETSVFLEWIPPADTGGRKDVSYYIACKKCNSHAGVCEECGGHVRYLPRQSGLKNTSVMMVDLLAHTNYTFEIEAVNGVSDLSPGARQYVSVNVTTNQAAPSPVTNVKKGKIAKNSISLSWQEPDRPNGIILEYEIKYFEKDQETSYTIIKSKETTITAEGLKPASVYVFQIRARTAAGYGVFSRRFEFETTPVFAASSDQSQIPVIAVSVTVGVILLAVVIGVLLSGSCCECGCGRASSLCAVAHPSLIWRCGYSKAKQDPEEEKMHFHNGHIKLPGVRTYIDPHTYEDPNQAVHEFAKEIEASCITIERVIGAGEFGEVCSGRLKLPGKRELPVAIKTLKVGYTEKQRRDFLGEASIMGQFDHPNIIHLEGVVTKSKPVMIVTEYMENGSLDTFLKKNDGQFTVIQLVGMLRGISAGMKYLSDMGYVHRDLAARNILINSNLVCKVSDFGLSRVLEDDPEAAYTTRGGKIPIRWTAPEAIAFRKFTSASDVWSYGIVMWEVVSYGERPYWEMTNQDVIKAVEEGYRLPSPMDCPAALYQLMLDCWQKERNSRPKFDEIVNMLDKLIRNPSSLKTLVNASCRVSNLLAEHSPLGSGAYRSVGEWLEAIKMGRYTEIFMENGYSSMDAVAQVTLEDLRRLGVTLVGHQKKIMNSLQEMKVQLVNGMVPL
FRK, sequence (P42685 whole entry, species assumed): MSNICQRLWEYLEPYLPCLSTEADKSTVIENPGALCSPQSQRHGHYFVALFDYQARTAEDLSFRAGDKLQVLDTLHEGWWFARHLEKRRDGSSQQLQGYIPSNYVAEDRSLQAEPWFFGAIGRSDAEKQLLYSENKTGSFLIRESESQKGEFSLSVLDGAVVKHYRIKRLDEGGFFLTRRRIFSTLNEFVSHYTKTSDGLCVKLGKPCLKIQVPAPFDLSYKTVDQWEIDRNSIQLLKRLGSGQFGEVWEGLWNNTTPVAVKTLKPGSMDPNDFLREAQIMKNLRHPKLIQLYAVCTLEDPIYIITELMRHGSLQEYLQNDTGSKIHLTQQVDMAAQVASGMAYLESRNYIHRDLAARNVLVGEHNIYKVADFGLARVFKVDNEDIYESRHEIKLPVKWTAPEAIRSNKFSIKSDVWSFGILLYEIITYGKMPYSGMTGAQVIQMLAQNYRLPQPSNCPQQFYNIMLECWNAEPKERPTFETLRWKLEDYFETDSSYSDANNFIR
FES, sequence (P07332 whole entry, species assumed): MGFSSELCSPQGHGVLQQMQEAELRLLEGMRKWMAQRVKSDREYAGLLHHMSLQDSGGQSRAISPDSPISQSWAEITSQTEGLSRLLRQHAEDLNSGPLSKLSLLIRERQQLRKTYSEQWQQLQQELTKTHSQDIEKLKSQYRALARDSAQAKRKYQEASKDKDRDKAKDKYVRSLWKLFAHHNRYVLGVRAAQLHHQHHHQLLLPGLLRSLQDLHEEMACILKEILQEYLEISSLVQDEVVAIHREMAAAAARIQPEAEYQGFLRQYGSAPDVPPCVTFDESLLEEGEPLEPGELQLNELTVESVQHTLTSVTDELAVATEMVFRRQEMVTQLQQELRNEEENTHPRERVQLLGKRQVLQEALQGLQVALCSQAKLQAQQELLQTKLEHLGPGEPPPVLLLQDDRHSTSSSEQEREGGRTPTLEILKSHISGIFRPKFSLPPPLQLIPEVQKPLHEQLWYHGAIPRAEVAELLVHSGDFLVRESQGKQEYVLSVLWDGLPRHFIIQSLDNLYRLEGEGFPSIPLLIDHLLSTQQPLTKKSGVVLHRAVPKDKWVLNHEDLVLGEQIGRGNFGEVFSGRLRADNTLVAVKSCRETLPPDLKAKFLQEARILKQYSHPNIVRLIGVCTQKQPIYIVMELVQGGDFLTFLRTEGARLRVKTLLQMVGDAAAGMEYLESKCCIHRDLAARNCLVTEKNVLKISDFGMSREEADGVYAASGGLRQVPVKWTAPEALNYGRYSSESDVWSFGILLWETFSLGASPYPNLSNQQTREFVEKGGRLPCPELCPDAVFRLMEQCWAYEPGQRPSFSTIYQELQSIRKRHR

Consider “C AYE AYE AYE K EYA EYA EYA K AYA EYE R (CAYEAYEAYEKEYAEYAEYAKAYAEYER; tyrosine kinase substrate peptide) [BRB1]”, for which the “Signal to Noise ratio with BRB1 Peptide” value in test [1] turned out to be 24.9; in test [2], 9.7; in test [3] it was 1.0; in test [4] it was 10.8; in test [5] it was 35.5; in test [6], 1.4. Besides, in test [7], the “Signal to Noise ratio with BRB1 Peptide” value was determined as 1.1. Further, in test [8], the “Number of kinases out of 83 that phosphorylated the peptide with signal to noise ratio of >3” value stood at 72. Moreover, the “Percentage of 83 kinases that phosphorylated the peptide with signal to noise ratio of >3” value in test [8] worked out at 87%.
